T1: MGYPDa23 (unidentified)
T1 chain: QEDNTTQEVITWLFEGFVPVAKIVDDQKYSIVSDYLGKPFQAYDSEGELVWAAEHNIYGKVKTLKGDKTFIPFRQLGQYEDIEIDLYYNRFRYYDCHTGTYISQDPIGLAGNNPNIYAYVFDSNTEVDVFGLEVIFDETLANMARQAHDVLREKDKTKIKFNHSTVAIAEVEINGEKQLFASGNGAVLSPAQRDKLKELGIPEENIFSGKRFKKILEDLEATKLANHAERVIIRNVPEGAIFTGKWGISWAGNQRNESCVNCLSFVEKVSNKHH

T2: d38_MGYPDa829 (unidentified)
T2 chain: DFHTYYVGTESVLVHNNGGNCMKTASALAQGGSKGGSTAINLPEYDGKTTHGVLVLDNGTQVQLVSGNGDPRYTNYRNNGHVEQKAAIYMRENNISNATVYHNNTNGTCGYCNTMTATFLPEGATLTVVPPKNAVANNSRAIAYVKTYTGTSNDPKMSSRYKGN

T3: LbsDa01 (Simiaoa sunii)
T3 chain: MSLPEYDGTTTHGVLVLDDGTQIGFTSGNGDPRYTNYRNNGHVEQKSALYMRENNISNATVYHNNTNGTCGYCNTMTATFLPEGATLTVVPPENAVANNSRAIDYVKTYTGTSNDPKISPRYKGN

T4: RaDa01 (Ruminococcus sp.)
T4 chain: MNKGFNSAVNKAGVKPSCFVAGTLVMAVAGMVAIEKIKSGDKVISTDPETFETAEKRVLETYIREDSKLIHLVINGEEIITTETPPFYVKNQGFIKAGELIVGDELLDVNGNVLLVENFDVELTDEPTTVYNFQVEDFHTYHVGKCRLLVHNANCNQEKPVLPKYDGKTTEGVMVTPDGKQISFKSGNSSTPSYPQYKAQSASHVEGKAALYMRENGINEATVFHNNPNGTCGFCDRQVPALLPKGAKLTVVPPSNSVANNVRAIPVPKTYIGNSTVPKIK

T5: CrDa01 (Clostridium roseum)
T5 chain: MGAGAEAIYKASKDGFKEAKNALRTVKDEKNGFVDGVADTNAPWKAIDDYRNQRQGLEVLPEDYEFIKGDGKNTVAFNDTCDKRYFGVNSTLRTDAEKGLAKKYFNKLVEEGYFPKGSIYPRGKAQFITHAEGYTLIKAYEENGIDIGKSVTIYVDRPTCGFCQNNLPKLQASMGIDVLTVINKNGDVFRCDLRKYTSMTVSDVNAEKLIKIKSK

T6: AvDa02 (Actinomyces viscosus)
T6 chain: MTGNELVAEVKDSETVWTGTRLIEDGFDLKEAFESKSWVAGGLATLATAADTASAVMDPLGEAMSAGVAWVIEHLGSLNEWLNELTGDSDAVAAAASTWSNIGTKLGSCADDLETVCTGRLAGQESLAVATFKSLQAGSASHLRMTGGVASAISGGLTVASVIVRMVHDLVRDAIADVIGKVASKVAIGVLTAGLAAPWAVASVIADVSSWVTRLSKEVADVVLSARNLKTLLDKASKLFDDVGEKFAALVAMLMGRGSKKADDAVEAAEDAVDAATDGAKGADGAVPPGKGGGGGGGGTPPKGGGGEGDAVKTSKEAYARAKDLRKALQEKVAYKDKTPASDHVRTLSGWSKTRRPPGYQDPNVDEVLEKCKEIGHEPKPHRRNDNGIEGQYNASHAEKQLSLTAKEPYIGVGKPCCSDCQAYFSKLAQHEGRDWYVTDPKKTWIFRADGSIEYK

T7: MGYPDa20 (unidentified)
T7 chain: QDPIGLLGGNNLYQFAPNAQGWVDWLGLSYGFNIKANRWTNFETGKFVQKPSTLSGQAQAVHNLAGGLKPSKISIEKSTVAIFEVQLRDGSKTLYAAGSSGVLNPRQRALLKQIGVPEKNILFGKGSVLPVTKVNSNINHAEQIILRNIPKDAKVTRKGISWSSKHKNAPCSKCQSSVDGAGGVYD


Tests used:
Assay in all cases: cell-based or functional assay
[1] = target: T1, MGYPDa23
[2] = target: T2, d38_MGYPDa829
[3] = target: T3, LbsDa01
[4] = target: T4, RaDa01
[5] = target: T5, CrDa01
[6] = target: T6, AvDa02
[7] = target: MGYPDa01 (unidentified)
[8] = target: T7, MGYPDa20

MGYPDa01 (unidentified), sequence (chain, as listed by the source): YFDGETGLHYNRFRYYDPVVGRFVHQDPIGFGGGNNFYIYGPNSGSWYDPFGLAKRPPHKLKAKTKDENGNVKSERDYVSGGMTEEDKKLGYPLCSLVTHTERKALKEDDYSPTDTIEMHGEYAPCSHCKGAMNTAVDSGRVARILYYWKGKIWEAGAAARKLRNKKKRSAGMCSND

| Binder | activity [1] | activity [2] | activity [3] | activity [4] | activity [5] | activity [6] | activity [7] | activity [8] |
| --- | --- | --- | --- | --- | --- | --- | --- | --- |
| 40 bp 5caC oligo (dsDNA, 5caC at all four C of the listed strand sites) DNA 1: AAATTTAATTATAAAACGATCGACGACGAAATAATAAAAA DNA 2: TTTTTATTATTTCGTCGTCGATCGTTTTATAATTAAATTT | 0.02 fraction deaminated | 0.1 fraction deaminated | 0.1 fraction deaminated | 0.47 fraction deaminated | – | – | – | – |
| 40 bp 5fC oligo (dsDNA, 5fC at all four C of the listed strand sites) DNA 1: AAATTTAATTATAAAACGATCGACGACGAAATAATAAAAA DNA 2: TTTTTATTATTTCGTCGTCGATCGTTTTATAATTAAATTT | 0.23 fraction deaminated | 0.12 fraction deaminated | 0.14 fraction deaminated | 0.66 fraction deaminated | 0.09 fraction deaminated | 0.08 fraction deaminated | – | – |
| 40 bp control C oligo (dsDNA) DNA 1: AAATTTAATTATAAAACGATCGACGACGAAATAATAAAAA DNA 2: TTTTTATTATTTCGTCGTCGATCGTTTTATAATTAAATTT | 0.97 fraction deaminated | 0.88 fraction deaminated | 0.92 fraction deaminated | 0.98 fraction deaminated | 0.98 fraction deaminated | – | 0.12 fraction deaminated | 0.59 fraction deaminated |

From patent publication US20230357838, “Double-Stranded DNA Deaminases and Uses Thereof” (New England Biolabs, Inc., published 2023)
